The test has as its target human ST2 on human primary cells (human) (UniProt Q01638). The test can be described thus: cell-based or functional assay.

Here are results for one substance from patent US20140004107A1.

Sequence of human ST2 on human primary cells (human) (Q01638 19-556 A78X): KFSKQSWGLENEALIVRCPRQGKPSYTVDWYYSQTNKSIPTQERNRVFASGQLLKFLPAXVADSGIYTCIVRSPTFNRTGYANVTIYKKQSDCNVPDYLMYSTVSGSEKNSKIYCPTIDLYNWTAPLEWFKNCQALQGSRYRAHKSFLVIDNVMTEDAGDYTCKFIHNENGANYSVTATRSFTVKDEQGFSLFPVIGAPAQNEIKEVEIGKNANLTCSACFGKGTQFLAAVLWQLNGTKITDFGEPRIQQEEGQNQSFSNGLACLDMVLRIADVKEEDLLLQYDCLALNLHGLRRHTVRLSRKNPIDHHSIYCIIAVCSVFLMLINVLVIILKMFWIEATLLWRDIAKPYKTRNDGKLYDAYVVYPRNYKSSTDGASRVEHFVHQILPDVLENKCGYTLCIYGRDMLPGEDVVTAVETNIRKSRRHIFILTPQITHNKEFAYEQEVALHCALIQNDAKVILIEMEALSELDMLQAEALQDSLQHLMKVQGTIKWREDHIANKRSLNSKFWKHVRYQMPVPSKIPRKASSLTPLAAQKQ

As for 97203 (antibody), the IC50 of inhibition of IL-33-dependent IFN-γ response of human NK cells (IL-33 10 ng/mL plus IL-12) was 0.385 µg/mL.
